Laboratory results taken from PMC5854381, “Dynamics of Scabin toxin. A proposal for the binding mode of the DNA substrate”.

Columns and labels:
[1] = tested on: NC(=O)c1ccc[n+]([C@@H]2O[C@H](COP(=O)(O)OP(=O)(O)OC[C@H]3O[C@@H](n4cnc5c4ncn4ccnc54)[C@H](O)[C@@H]3O)[C@@H](O)[C@H]2O)c1; assay: purified protein; conditions: pH 7.9
Scabin WT = Scabin WT (Streptomyces scabies, UniProt C9Z6T8 26-200); assay: fluorescence anisotropy; no NAD+ mentioned; text labels this WT value N110A [sic]; Anisotropy: 5 uM Cy3-dsDNA, 25 mM Tris-HCl pH 8.2, 100 mM NaCl, 22 C; conditions: protein: recombinant; label: 5' Cy3 on strand 1; blunt

Molecule | Km [1] [µM] | Kd (Scabin WT) [µM]
(Streptomyces scabiei 87.22) | 68 ± 3 | –
Cy3-dsDNA 21 bp (dsDNA) DNA 1: GGAAGAGAGAGAGAAAGAGAG DNA 2: CTCTCTTTCTCTCTCTCTTCC | – | 51 ± 4
